Source: a protein production outcome set (Wang et al. 2014)

Assay: label from the status in PepcDB records
For “MFRKVLFPTDFSEGAYRAVEVFEKRNKMEVGEVILLHVIDEGTLEELMDGYSFFYDNAEIELKDIKEKLKEEASRKLQEKAEEVKRAFRAKNVRTIIRFGIPWDEIVKVAEEENVSLIILPSRGKLSLSHEFLGSTVMRVLRKTKKPVLIIKEVDENELAKTKGTSG”, the protein production was “not failed”.
With “MFRLEDFNFHNKTVFLRVDLNSPMKDGKIISDARFKAVLPTIRYLIESGAKVVIGTHQGKPYSEDYTTTEEHARVLSELLDQHVEYIEDIFGRYAREKIKELKSGEVAILENLRFSAEEVKNKPIEECEKTFLVKKLSKVIDYVVNDAFATAHRSQPSLVGFARIKPMIMGFLMEKEIEALMRAYYSKDSPKIYVLGGAKVEDSLKVVENVLRRERADLVLTGGLVANVFTLAKGFDLGRKNVEFMKKKGLLDYVKHAEEILDEFYPYIRTPVDFAVDYKGERVEIDLLSENRGLLHQYQIMDIGKRTAEKYREILMKARIIVANGPMGVFEREEFAIGTVEVFKAIADSPAFSVLGGGHSIASIQKYGITGITHISTGGGAMLSFFAGEELPVLRALQISYEKFKEVVK” the protein production was “not failed”.
In the case of “MFRSIKVASIVQIVFAVCAVLLALTVFEYKKALNTFTNDLNLTVSNTLTRLQVNLPKPLWDFDLETVKSAISAELKTPEISSIKITDTTGKAILYLTLDQATDDKGLRKTIAVENEGALAELASVSGELEFVEYGKKNPLGSIEIRYSDEFMHQQLAEYVSFNLLKVLILAILIPCMLFIILNFSVLKPLNELGDKTRTTIQWGCRPHPSVTRS”, the protein production is reported as “failed”.
With “MFRTSGTKTIVFHCHPRYTMIVCVMEEFCRKKVDGNENNSYLTVCNRKLDQERKEIVMNEKQRLEQTGQIQTASHPADRKSDLERLKAKTTKDYEKYFTSVFLPPNLKEAKKRGKEEVQYVKDFTIPDEFRGMGRGRKFYIRTYGCQMNEHDTEVMAGIFMALGYEPTDRPEDANVILLNTCAIRENAENKVFGELGYLKPLKTTNPDLLLGVCGCMSQEEAVVNKILKQYQYVDLIFGTHNIHRLPYILHEAYMSKEMVVEVWSKEGDVVENLPKVRKGNIKAWVNIMYGCDKFCTYCIVPYTRGKERSRRPEDIIQEVRQLAAQGYKEITLLGQNVNAYGKDFNDIQYGLGDLMDELRKIDIARIRFTTSHPRDFDDRLIEVLAKRGNLVEHIHLPVQSGSTEILKMMGRKYTREEYLELVRKIKAAIPDVALTTDIIVGFPNETDEQFEETLSLYREVEFDSAYTFIYSPREGTPAAKMNDNVPMEVKKERLQRLNALVQEIAAKKMKQYEGQVVEVLVEGESKTNPDVLAGYTRKNKLVHFVGPKSLIGQLVNVRITQAKTWTLTGELANEAIEVN” the protein production was “failed”.
With “MFSLKMRASSNGNHVSGAERLVKEEQIEEISSELIKRAMNHENGVPDFINLKVEKVTENINYIEHLKIKTINSNSKETSREFAINILKKELENYFLKNGKDTKKIDELIDSAFKIIDAGNMRGAAILDLDGNRLEKSSDRGIRVRNIDTAEELSKKILKDGSLTERTVDAIAIATKVVNCDIIAELCTSDNFSYTTGYVATKDGYFRILNLKDSGQVGGRVFFAESSDIDELYDKLENMPVIVY” the protein production was “failed”.
With “MFSSSYSNLPPLPHRLFLLLTVIWAGSLWTIGYLVAPTLFSVLPSRETAGMIAGHLFRYEAILGMTVGVLQLVLCNVLIRRGAERYRSLRWIVLTMLVCVLAGYFGVQPFMEGLKVKAQALNLGVSESPYKAEFGMLHGVSSVIYLVQSVLALVLVWRASAPR” the protein production was “failed”.
With “MFTFISIMAVGVLIGYPLRHKSQVRKITPLIHIVVCLLLFLLGLSIGLNRLIIDNLGYFCGQAAVISSLSILGSMMASLAVYHIFF” the protein production was “failed”.
For “MFTMVQKLWLTVVCAVFVTVSFLYFVSLYSYEKLYVDNLKDSLVMEGKRLSAQYDKREGISIFEEKVRAFDQISSSDVLFVSNPRDLSACLPFDVHHHSLISEGDRQALLDGKTVTKIGYEEHFDRNIMGVVIPVLENKKLVGIVYSYIPLKSIKDLIYDMGLILAPLALAITLLTIWIGRKIIIAITKPLSQMERVANHLATGDFSERITISSEDEIGRLGKAFNKMANSLETEDVKRKEFLANVSHELRTPLSYIKGYSEAILDGVAKGPQQEKVTQLIHKEADRMQRLVHDLLDLAQLEGEHFPLKKQPIVFSQLIEDVLDTYEIKFIEKKIRISTNLNPEIIVMIDEDRMQQVLHNVLDNAIRYTNQNGDIIVTLRQIDDYCELNIKDTGIGIDTEHLENLGERFYRVDKARSRQHGGTGLGLAIVRQIVHIHDGQWRIESEKGNGTTVSIKLKVQDEESMF”, the protein production was “failed”.
In the case of “MFTPGNVLSWATFFPVIGSALIVVLLAAKFFLRLDKKLVDDGSRWIALVTSALSFAAAIAAWRMYDPSATGVQLVQHFTWIRAFNIEFYFGVDGISISMVLLSGLISFIATIASMPWWSGKKDAEMAGMVDDGHEDPHHPKHFSVRMVPGYMAMLLLLQTGMMGTFVALDMFLFYVFWEIMLLPMYFLIGIWGGPRKEYAAIKFFLYTLAGSVLMLLAIIGIYYNSAPAQLADGSWSSGHTFNLIELAKQGAAGQFRNAAPILGFSFAKIVFIGLFIGFAIKIPMFPFHTWLPDAHVEAPTPISVILAGVLLKMGIYGILRFNYGILPDATAWAAGAIAVFGVINIIYAAFVCLAQKDLKKLIAYSSVSHMGFSLLGMAAMTPQGISGAVLNLFTHGIISPMLFLIVGVIYDRAHHREIEKFGGLAQELPEYSAIMGLAFFASLGLPGLAGFISEFTVFSGAFPVFTTYTIISATSVVLTAAYYLWAIHRMFLGKLNPVYKGYPDLNWRERMSLYPLAVICIYLGFYPQAILGVINPALHALIQNIKPL”, the protein production is reported as “failed”.
In the case of “MFTYLLITIFGIGLLIWAFWYDKNMFKPEKKKNGKMTKPLHTRWYFWVLVVFSIVGGIGNMLGLGADDDDSDNNSAQTVQTSKKAKQSKAENHSKAKKSGTKKSKEISDEEKEAAALLLLRKNFKGKAKVWYDSDNKAFMIQPTGTEFKEELLDIIATQDTSDWKDLTDSMDSLSRSLYKNLQLADFVSIVNPDNPDKVLYSSLNGHSEYDFLKDDE”, the protein production is reported as “failed”.
With “MFVGVVVIVAYGNLGQRLAYTVRSDEVVATAGFVLVGFVAGVAGQVLGTRIQAAVGEGAAVVDLPLVLFLAASGAFVAALLRSVLFERDDPLVMLTVGLLLWLFFELDPSVTARRVVIALAVTVLLGYLSYALDTASLPGMLTGVLLSFLTIVLGGFGWFAMLITFFGLGGLSTKYRYDEKLDRGIAEENEGARGSGNVLANSIVALFAVVAAAASPSHIAVDPLLFFYAFAGAVAAAMTDTFSSEFGGLYDNPRLITTLRPVEPGTDGGVTWQGVAAGAAGAGIIAGIAALTQDISTVGSGVILLCGLVGMTVDSLLGATVEGSVVGNQGVNMLATLAAALTGAGVVLTAGLL” the protein production was “failed”.
In the case of “MFVHTKTKKKRKWQRKVFLLLLLFLLPIVSVLAFIVLFIGGGTAESHDVEATTGGVKLSAKQFADKTKLGISEEEAKNALAFADRLMSRHHFTAQATAGVLAVGFRESGFDVKAVNNSGGVAGFFQWSGWGSSVNGDRWKVASKRELTLEVEVDLMSTELDGRYADVVKKVGSATDEKQAAKDWSQYYEGVAVSDGQTKADKIESWATTICEALKSGGTNYAKVNNTGTSSTAIPQGWENISAFDGHAYEGSENYPQGQCTWYVYNRAKQLGVSFSPYMGNGGQWYQVQGYHSSHTPKAHTALSFVNGQAGSDPTYGHVAFVEAVKDDGSILISEMNVYGQPAMTVAYRTFDAETAKQFWYVEGK”, the protein production is reported as “failed”.
